Measurements as given in patent publication US20060172958A1 (published 2006).

Columns and labels:
c-abl kinase = c-abl kinase (UniProt P00519 1-1130, limits assumed); experiment: co-immunoprecipitation with PLS3 antibody, Western blot with c-abl antibody
[1] = molecular target: T1, yeast two-hybrid library clone encoding amino acids 103-277 of phospholipid scramblase 3 (human, UniProt Q9NRY6 103-277); experiment: yeast two-hybrid
T1 construct: also called PLS3 clone; cDNA cloned from the yeast two-hybrid screen; not shown: fusion partner of the Clontech MatchMaker human liver library vector
T1 sequence (Q9NRY6 103-277): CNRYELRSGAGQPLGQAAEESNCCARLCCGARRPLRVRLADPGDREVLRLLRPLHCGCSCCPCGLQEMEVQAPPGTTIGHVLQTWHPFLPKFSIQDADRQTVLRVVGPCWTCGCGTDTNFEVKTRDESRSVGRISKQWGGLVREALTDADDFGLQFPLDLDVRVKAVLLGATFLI

Chain of c-abl kinase (P00519 whole entry, the tested form may be a part): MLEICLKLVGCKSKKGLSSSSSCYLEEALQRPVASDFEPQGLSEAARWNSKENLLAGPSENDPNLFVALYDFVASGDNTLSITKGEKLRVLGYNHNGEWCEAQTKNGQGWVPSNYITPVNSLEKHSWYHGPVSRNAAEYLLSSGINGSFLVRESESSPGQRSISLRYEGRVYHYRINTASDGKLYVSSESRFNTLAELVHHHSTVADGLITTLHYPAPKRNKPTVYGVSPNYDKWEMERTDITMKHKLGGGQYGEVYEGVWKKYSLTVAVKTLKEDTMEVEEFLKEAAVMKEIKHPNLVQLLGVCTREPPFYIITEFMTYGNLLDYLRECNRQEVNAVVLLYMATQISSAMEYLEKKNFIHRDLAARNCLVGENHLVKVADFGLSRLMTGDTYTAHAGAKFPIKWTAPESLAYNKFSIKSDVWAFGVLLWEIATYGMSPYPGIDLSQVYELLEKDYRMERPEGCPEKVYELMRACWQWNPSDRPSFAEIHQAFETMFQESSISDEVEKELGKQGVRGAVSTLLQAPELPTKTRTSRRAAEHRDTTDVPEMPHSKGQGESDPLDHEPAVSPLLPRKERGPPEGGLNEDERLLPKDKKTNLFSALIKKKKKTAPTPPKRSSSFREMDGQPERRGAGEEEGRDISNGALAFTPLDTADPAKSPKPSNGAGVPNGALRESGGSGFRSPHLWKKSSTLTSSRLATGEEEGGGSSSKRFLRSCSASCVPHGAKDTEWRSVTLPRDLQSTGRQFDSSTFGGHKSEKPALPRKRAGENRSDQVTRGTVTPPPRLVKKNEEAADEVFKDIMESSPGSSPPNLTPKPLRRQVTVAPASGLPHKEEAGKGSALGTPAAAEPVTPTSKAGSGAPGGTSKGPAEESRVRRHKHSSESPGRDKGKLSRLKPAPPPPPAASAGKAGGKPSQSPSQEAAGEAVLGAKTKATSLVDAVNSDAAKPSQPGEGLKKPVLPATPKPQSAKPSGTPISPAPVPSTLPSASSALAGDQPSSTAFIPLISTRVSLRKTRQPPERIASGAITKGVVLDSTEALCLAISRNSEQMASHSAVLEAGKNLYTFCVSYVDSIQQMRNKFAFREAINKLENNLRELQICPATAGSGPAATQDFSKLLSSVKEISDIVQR

binding result (c-abl kinase) | binding result [1] | Binder
no binding | – | phospholipid scramblase 3 (PLS3), human, isoform not stated (enzyme, phosphothreonine, position not stated (shown by the anti-PT blot of immunoprecipitated PLS3), also called endogenous PLS3; wild-type PLS3) not shown
– | no binding | lamin C control bait (pAS2-lamin C) (other, UniProt P02545-2 66-230, looked up, also called control bait lamin C; not shown: bait fusion partner encoded by the pAS2 vector) SEEVVSREVSGIKAAYEAELGDARKTLDSVAKERARLQLELSKVREEFKELKARNTKKEGDLIAAQARLKDLEALLNSKEAALSTALSEKRTLEGELHDLRGQVAKLEAALGEAKKQLQDEMLRRVDAENRLQTMKEELDFQKNIYSEELRETKRRHETRLVEID
